Test results from article PMC10328973.

Target: UKNP5.2.1 E2E1-I53-50A trimer (hepatitis C virus genotype 5, strain UKNP5.2.1)

B1: chimeric HEPC74 HC – VRC01 LC (antibody, V domains shown)
VH: QVQLVQSGAEVKKPGSSVKVSCTTSGGTYINYAISWVRQAPGQGLEWVGGMSPISNTPKYAQKFQGRVTITADESTSTTYMELSSLRPEDTAVYYCARDLLKYCGGGNCHSLLVDPWGQGTLVTVSS
VL: EIVLTQSPGTLSLSPGETAIISCRTSQYGSLAWYQQRPGQAPRLVIYSGSTRAAGIPDRFSGSRWGPDYNLTISNLESGDFGVYYCQQYEFFGQGTKVQVD
In the case of B1, the neutralisation of UKNP5.2.1 HCVpp, IC50 (the only HCVpp neutralised) is reported as 4.4 µg/mL.
